72 sequences from the supplement of paper PMC10567573 can be followed below.

The data set can be described thus: protein stability index of a GFP-peptide fusion (GPS, HEK-293T) (PSI 1-6); higher = more stable.
Where [1] appears, read: treatment: DMSO, c terminus: a fixed tail appended.
Setting [2] is: treatment: MLN4924 1 uM, 8 h, c terminus: a fixed tail appended.
The mark [3] stands for this setting: treatment: DMSO, c terminus: native.
Setting [4] is: treatment: MLN4924 1 uM, 8 h, c terminus: native.

± gives the standard deviation.
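Note: 24-mer peptide tiles fused after GFP, lentivirally expressed, FACS-sorted into six equal bins by GFP/DsRed ratio, decoded by Illumina sequencing, PSI is the read-weighted mean bin number.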

Regarding SQEETSILRCWKCRKCIASSGCFM [RNF180], the protein stability index is, setting by setting: under setting [1], 2.81 ± 0.4; under setting [2], 2.89 ± 0.35.

On to SQPIDLSACTVALHIFQLNEDGPS [TRIP13], for which the protein stability index is 2.56 ± 0.2 under setting [1] and 2.51 ± 0.28 under setting [2].

As to SQSLALKEQNNLKQLEFGLKEAPV [ZNF8], the protein stability index amounted to 4.7 ± 0.24 under setting [1] and 4.44 ± 0.16 under setting [2].

Turning to SQSSYLSQHRRIHSGEKPFICKEC [ZNF232], the protein stability index is 3.36 ± 0.33 under setting [1] and 3.67 ± 0.44 under setting [2].

SQVALKIIRNVGKYREAARLEINV [CLK3] yielded a protein stability index under setting [1] of 2.67 ± 0.51 and a protein stability index under setting [2] of 2.62 ± 0.54.

SRAESAPLPVSADDTPEVLNRALS [CDS2]: the protein stability index by setting is: under setting [1], 5.36 ± 0.19; under setting [2], 5.37 ± 0.21.

As to SRLTALTLHQRTHTEERPFKCNYC [ZNF449], the protein stability index stood at 2.73 ± 0.23 under setting [1] and 3.03 ± 0.4 under setting [2].

Take SRSLLTGGYNLASVSVWDLAAPSL [TLE6]: the protein stability index was found to be 2.38 ± 0.27 under setting [1] and 2.29 ± 0.14 under setting [2].

SRVGKQSFIITLGCNSVLIQFATP [CARM1]: the protein stability index is, setting by setting: under setting [1], 2.83 ± 0.4; under setting [2], 2.97 ± 0.56.

Turning to SSAYVKTSEKLGEWNEKVTQSDLY [TPD52L2], the protein stability index is, setting by setting: under setting [1], 4.02 ± 0.19; under setting [2], 3.98 ± 0.17.

Consider SSMFSGSWKESSMNIIELEIPDQN [GMCL1], for which the protein stability index is, setting by setting: under setting [1], 3.53 ± 0.29; under setting [2], 3.67 ± 0.5.

SSRYDDYSSSRDGYGGSRDSYSSS [RBMX]: the protein stability index is 4.37 ± 0.25 under setting [1] and 4.52 ± 0.19 under setting [2].

Turning to SSSSILRWLPEKRANPCLSSSNEH [ELOA2], the protein stability index runs as follows: under setting [1], 3.4 ± 0.19; under setting [2], 3.54 ± 0.25.

For SSSSSSSSSSGPGHGEPDVLKDEL [TMEM40], the protein stability index came to 5.44 ± 0.15 under setting [1] and 5.42 ± 0.21 under setting [2].

With SSVSPAVSKASSRRSSFSMEEES [TFE3], the protein stability index is 5.44 ± 0.14 under setting [3] and 5.28 ± 0.17 under setting [4].

On to STEKVVQETVLVEERRVVHASGDA [EPB41L3], for which the protein stability index reads like this: under setting [1], 5.33 ± 0.23; under setting [2], 4.93 ± 0.16.

As for STFYPPYHSPELTTPPGHGTLDNS [NEUROD6], the protein stability index under setting [1] is 4.27 ± 0.091 and the protein stability index under setting [2] was determined as 4.21 ± 0.22.

Consider STTDLRGTQFDYERGKGESTEDR [ZSWIM9], for which the protein stability index under setting [3] worked out at 5.28 ± 0.34 and the protein stability index under setting [4] was 5.43 ± 0.11.

In the case of SVFKKGRRRVPVRNLGKVVHYAKV [PLEKHN1], the protein stability index is, setting by setting: under setting [1], 2.36 ± 0.17; under setting [2], 2.37 ± 0.84.

SVIEEDLEEFQLALKHYVESASSQ [NECAB1]: the protein stability index by setting is: under setting [1], 3.78 ± 0.58; under setting [2], 3.84 ± 0.077.

Regarding SVIKDHHTRSITSCCFDPDSQRVA [WDR88], the protein stability index is 3.35 ± 0.2 under setting [1] and 3.41 ± 0.38 under setting [2].

As to SVLLSWEIPENYNSAMPFKILYDD [PTPRD], the protein stability index runs as follows: under setting [1], 1.88 ± 0.26; under setting [2], 2.29 ± 0.22.

Turning to SVMYRKWKESKGKDREYTDIIRKQ [CDC34], the protein stability index runs as follows: under setting [1], 3.52 ± 0.18; under setting [2], 3.76 ± 0.25.

Consider SWMCTRSGNMLGRHFFTSWASCLQ [WDFY1], for which the protein stability index came out at 1.86 ± 0.32 under setting [1] and 2.33 ± 0.22 under setting [2].

As to TCSADHLIILWKNGERESGLRSLR [WDR41], the protein stability index reads like this: under setting [1], 2.09 ± 0.25; under setting [2], 2.28 ± 0.17.

As to TCSICRRNFSRRSSLLRHQKLHL [ZNF75A], the protein stability index reads like this: under setting [3], 3.65 ± 0.23; under setting [4], 4.06 ± 0.43.

Take TDNSIKPQELLEWELVVLGKLKWN [CCND2]: the protein stability index under setting [1] stood at 2.65 ± 0.25 and the protein stability index under setting [2] came out at 2.81 ± 0.33.

TEELNKEVASNTEMIQTSKTEITD [KRT15] returned a protein stability index under setting [1] of 5.49 ± 0.29 and a protein stability index under setting [2] of 5.52 ± 0.19.

On to TEISFILGQEFDEVTADDRKVKST [FABP4], for which the protein stability index runs as follows: under setting [1], 4.24 ± 0.43; under setting [2], 4.43 ± 0.17.

On to TERMDKVGDALEEVLSKALSQRTI [GADD45A], for which the protein stability index stood at 3.83 ± 0.26 under setting [1] and 3.83 ± 0.13 under setting [2].

On to TESYIARPDGDCASSLNGGNIKGI [ZC2HC1A], for which the protein stability index was 4.09 ± 0.047 under setting [1] and 4.24 ± 0.21 under setting [2].

On to TEWACILRRKTPRHKQPTLLMVRA [C6orf223], for which the protein stability index came to 2.19 ± 0.57 under setting [1] and 2.17 ± 0.097 under setting [2].

As to TFALYKNGSSEKREVRQFQFTAWP [PTPRD], the protein stability index turned out to be 2.29 ± 0.22 under setting [1] and 2.46 ± 0.18 under setting [2].

Turning to TFFEVSPLCNFNVIESFTELSRIV [RAB40C], the protein stability index turned out to be 2.46 ± 0.63 under setting [1] and 2.15 ± 0.43 under setting [2].

Consider TFQSSVLRVGIPENAPIGTLLLRL [PCDHGC5], for which the protein stability index turned out to be 2.23 ± 0.3 under setting [1] and 2.16 ± 0.12 under setting [2].

Sequence TGEDVKVILKNSQGEEVAQRSTVF [LMNB1] yielded a protein stability index under setting [1] of 4.7 ± 0.15 and a protein stability index under setting [2] of 4.64 ± 0.09.

As to THSREKSSQESGEEAGSQENHPQE [CHGB], the protein stability index reads like this: under setting [1], 5.54 ± 0.39; under setting [2], 5.6 ± 0.18.

Regarding THVTLLITVTQSHLVIQNLFEGMI [CDS1], the protein stability index runs as follows: under setting [1], 3.09 ± 0.21; under setting [2], 3.22 ± 0.16.

Consider TIPASLDLSPLLGFWQLPPPATQN [PLAGL1], for which the protein stability index was found to be 2.74 ± 0.15 under setting [1] and 2.96 ± 0.32 under setting [2].

Consider TKHIHITQATETTTTRHKRTANPS [CLINT1], for which the protein stability index runs as follows: under setting [1], 4.6 ± 0.19; under setting [2], 4.77 ± 0.13.

For TKKKGVKRPARLHTKPSQAPAVEV [NOP53], the protein stability index worked out at 4.36 ± 0.2 under setting [1] and 4.411 ± 0.021 under setting [2].

As to TLDKRWRVRKEAMMGLAQIYKKYA [PDS5B], the protein stability index amounted to 2.23 ± 0.21 under setting [1] and 2 ± 0.14 under setting [2].

Consider TLEQHLNTLEGKKPGNNEGSGAPS [SNAP91], for which the protein stability index by setting is: under setting [1], 4.81 ± 0.18; under setting [2], 5.14 ± 0.08.

Turning to TLHPDASANFHSLDDIYYFGGQNA [FUT8], the protein stability index turned out to be 3.21 ± 0.12 under setting [1] and 3.27 ± 0.16 under setting [2].

Sequence TLIREKSFGACLREETPRMPSWAS [ELOA2] had a protein stability index under setting [1] of 2.14 ± 0.13 and a protein stability index under setting [2] of 2.67 ± 0.71.

TLLLQGHHDKVQSLCYLQLTRQLV [WDFY1] had a protein stability index under setting [1] of 2.8 ± 0.43 and a protein stability index under setting [2] of 2.76 ± 0.38.

For the sequence TMARALGRFKLSIPHTHLLATLDP [WDR88], the protein stability index by setting is: under setting [1], 2.19 ± 0.27; under setting [2], 2.21 ± 0.18.

The sequence TNDVETARCTAGTLHNLSHHREGL [CTNNB1] showed a protein stability index under setting [1] of 3.89 ± 0.19 and a protein stability index under setting [2] of 4.07 ± 0.18.

As to TPAGLPPSRAKPPTEGAGSPAKAS [FBF1], the protein stability index reads like this: under setting [1], 5.38 ± 0.32; under setting [2], 5.4 ± 0.1.

The sequence TPDIKSHYAFRIFDFDDDGTLNRE [CIB1] yielded a protein stability index under setting [1] of 3.55 ± 0.15 and a protein stability index under setting [2] of 3.44 ± 0.21.

As for TPEELTILGETQEEEDEILPRKDY [CLCN6], the protein stability index is, setting by setting: under setting [1], 5.51 ± 0.13; under setting [2], 5.54 ± 0.21.

In the case of TPEKKAEEERDEEEDKRRKGEEVT [EPB41L3], the protein stability index reads like this: under setting [1], 5.74 ± 0.29; under setting [2], 5.75 ± 0.27.

For TQQELRKIREKEEWIKLDYHRRHN [IQUB], the protein stability index under setting [1] is 3.88 ± 0.29 and the protein stability index under setting [2] came to 3.82 ± 0.52.

For TQRLWDFTQSGPIVSRATGRCLEV [GALNT9], the protein stability index turned out to be 2.81 ± 0.43 under setting [1] and 3.02 ± 0.22 under setting [2].

As for TQYFAELLMTSGVVLCEGVKWLSF [CNOT7], the protein stability index is, setting by setting: under setting [1], 3.25 ± 0.2; under setting [2], 3.56 ± 0.19.

Consider TQYFVQENYLEYRQVPGSDPACYE [MAGEA6], for which the protein stability index runs as follows: under setting [1], 3.34 ± 0.29; under setting [2], 3.59 ± 0.38.

As to TRGKRESESRGSSGRVKRERDRER [USP39], the protein stability index amounted to 5.04 ± 0.26 under setting [1] and 5.3 ± 0.18 under setting [2].

Regarding TRHYRPPEVILELGWAQPCDVWSI [CLK3], the protein stability index by setting is: under setting [1], 2.69 ± 0.65; under setting [2], 2.47 ± 0.52.

In the case of TRPTQHELRLYKQQVKKLEKALKK [CEP70], the protein stability index is 3.23 ± 0.25 under setting [1] and 3.07 ± 0.29 under setting [2].

As for TRSHLWEAAQVVPDGLGLDEAREE [TRIB3], the protein stability index by setting is: under setting [1], 5.13 ± 0.24; under setting [2], 5.13 ± 0.28.

On to TRTGPSAWETKKILAVSFAPLIQP [PCMTD2], for which the protein stability index runs as follows: under setting [1], 2.14 ± 0.29; under setting [2], 2.31 ± 0.31.

In the case of TSAKVNWMPPPSRADSFKVSYQLA [TNXB], the protein stability index is 2.5 ± 0.32 under setting [1] and 2.69 ± 0.26 under setting [2].

Consider TSIGDGPLSSDIQVITQTGVPGQP [PTPRD], for which the protein stability index is, setting by setting: under setting [1], 4.6 ± 0.22; under setting [2], 4.76 ± 0.19.

For the sequence TSPTRQHHVEREKDHSSSRPSSPR [BTBD10], the protein stability index under setting [1] stood at 5.38 ± 0.12 and the protein stability index under setting [2] is 5.45 ± 0.092.

On to TTKFTGSHKERFDPSGKGKGKAGR [TPPP], for which the protein stability index turned out to be 4.83 ± 0.2 under setting [1] and 4.93 ± 0.32 under setting [2].

On to TTPLSPTRLSRLQEKEELRELNDR [LMNB1], for which the protein stability index came out at 5.18 ± 0.39 under setting [1] and 5.1 ± 0.18 under setting [2].

In the case of TVASEAKIQLSDSEAKSHSSADDA [FAN1], the protein stability index was determined as 5.46 ± 0.28 under setting [1] and 5.38 ± 0.27 under setting [2].

Regarding TVFDANDNAPVFTLPEYRVSVPEN [PCDHGA10], the protein stability index is, setting by setting: under setting [1], 3.53 ± 0.11; under setting [2], 3.86 ± 0.16.

On to TVKHIDAALSEENTGKTYFFVANK [MMP1], for which the protein stability index runs as follows: under setting [1], 3.28 ± 0.32; under setting [2], 3.38 ± 0.18.

TVLAVLEDSSRDIREALHELLCCT [INTS4]: the protein stability index came out at 2.43 ± 0.54 under setting [1] and 2.29 ± 0.26 under setting [2].

For VACSETAPDLVLNAEMVQQTTYLE [LOXL2], the protein stability index is, setting by setting: under setting [1], 4.41 ± 0.53; under setting [2], 4.5 ± 0.25.

In the case of VAFVDRADIKQYIGPPSAAAIFKI [TRIP13], the protein stability index is, setting by setting: under setting [1], 2.82 ± 0.66; under setting [2], 2.36 ± 0.47.
